These results are taken from patent publication US20260132208A1 (DOMAIN THERAPEUTICS, published 2026).

In experiment [1] the target is T1, human CCR8 (human, UniProt P51685 1-355). Description: cell-based or functional assay.
Experiment [2] concerns the target T1, human CCR8. In words: flow cytometry, hCCR8-transfected CHO-K1 cells. As for the experimental part: Briefly, 1.10⁵ cells per well in a 96 well plate were incubated with a dilution of unconjugated anti-CCR8 mAb at 10 μg/mL then diluted at 1/3.33, 4 dilution points (during 30 min at 4° C.). In human activated T cells model, prior to mAb incubation, cells were first incubated with 200 nM of hCCL1 (R&D Systems, Minneapolis, MN, USA) or buffer PBS (Invitrogen by Thermofisher Scientific, Illkirch-Graffenstaden, France) supplemented by 2% Fetal Bovine Serum (Invitrogen by Thermofisher Scientific, Illkirch-Graffenstaden, France) and 2 mM EDTA (Invitrogen by Thermofisher Scientific, Illkirch-Graffenstaden, France) during 1 hour at 4° C. To determine EC50 value, 8 concentrations of anti-CCR8 mAb were tested. Unbound antibodies were washed away with PBS (Invitrogen by Thermofisher Scientific, Illkirch-Graffenstaden, France) supplemented by 2% Fetal Bovine Serum (Invitrogen by Thermofisher Scientific, Illkirch-Graffenstaden, France) and 2 mM EDTA (Invitrogen by Thermofisher Scientific, Illkirch-Graffenstaden, France). Subsequently, cells are centrifuged (5 min at 400 g) and bound antibody is detected with F(ab′)2-Goat anti-Mouse IgG (H+L) Cross-Adsorbed Secondary Antibody, Alexa Fluor 488 (dilution 1/500) (Invitrogen by Thermofisher Scientific, Illkirch-Graffenstaden, France) or with F(ab′)₂-Goat anti-Human IgG Fc Secondary Antibody, PE (Invitrogen by Thermofisher Scientific, Illkirch-Graffenstaden, France) (dilution 1/1000) at 4° C. for 30 min. Detection reagent is washed away and cells are centrifuged (5 min at 400 g) and resuspended in 30 μL PBS. Bound detection antibody is quantified on a MacsQuant16 (Miltenyi, Gladbach, Germany) (B1 or B2 channel, 5000 events per acquisition). During the experiment, the respective isotype mAb controls (mouse IgG1, mouse IgG2a, mouse IgG2b, mouse IgG3 or human IgG1) (Biolegend, Amsterdam, The Netherlands) are included to exclude any unspecific binding events. EC50 values were determined via nonlinear fit “log (agonist) vs.response—Variable slope (four parameters)” function of Graphpad prism. EC50 values were not constantly determined in the same experiments.

The target in experiment [3] is T1, human CCR8. In words: cell-based or functional assay. This is another data set of the same source.
The next experiment deals with T2, pm6 (Y16 and Y17 sulfated; Y15 not sulfated).
T2 construct: also called sulfated CCR8 N-terminal peptide pm6
T2 sequence (peptide, as listed by the source): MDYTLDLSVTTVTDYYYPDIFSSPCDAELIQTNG
In words: ELISA on coated peptide [cont.]. As for the experimental part: (§1) The specific binding properties of antibodies were evaluated by ELISA with coated CCR8 related peptides (500 ng/ml) in carbonate/bicarbonate buffer. Different peptides were used as described in Table 1 (see Example 1). Each anti-CCR8 mAb was tested at 1 μg/mL then diluted at 1/10. After an incubation at room temperature during 90 min, unbound mAbs were removed by washings. […] After washings, 3,3′,5,5′-tetramethylbenzidine (TMB) (Interchim, Montluçon, France) was added for 15 min. Then the optical density (OD) was determined by using a multiplate reader (Tecan, Lyon, France) and correlated with mAb reactivity on the panel of coated peptides.
In general terms: ELISA stands for enzyme-linked immunosorbent assay.

The next experiment has as its target T3, pm5 (Y15 and Y17 sulfated; Y16 not sulfated).
T3 construct: also called sulfated CCR8 N-terminal peptide pm5
In words: ELISA on coated peptide [cont.]. As for the experimental part: as §1

A further experiment addresses T4, pm3 (Y17 sulfated; Y15 and Y16 not sulfated).
T4 construct: also called sulfated CCR8 N-terminal peptide pm3
Description: ELISA on coated peptide [cont.]. As for the experimental part: as §1

Another experiment deals with T5, pm8 (Y15, Y16 and Y17 sulfated).
T5 construct: also called sulfated CCR8 N-terminal peptide pm8
T5 sequence (peptide, as listed by the source): as above
In words: ELISA on coated peptide [cont.]. As for the experimental part:
as §1

Experiment [4] concerns the target T1, human CCR8. Description: flow cytometry, inhibition of hCCL1-AF647 (10 nM) binding to hCCR8-CHO cells. As for the experimental part:
The hCCR8 transfected CHO cell line was dispatched at a density of 1.105 per well in a 96-well plate. Cells were incubated for 30 min at 4° C. with or without anti-CCR8 mAb tested at 10 μg/mL then diluted at 1/3. Unbound antibodies were washed away with PBS (Gibco, Villebon-sur-yvette, France) supplemented by 2% Fetal Bovine Serum (Invitrogen by Thermofisher Scientific, Illkirch-Graffenstaden, France) and 2 mM EDTA. […] After washing unbound ligands, CCL1 bound detection is quantified on a MacsQuant16 (Miltenyi, Gladbach, Germany) (R1 channel, 5 000 events per acquisition).
For IC₅₀ determination, a concentration response curve is performed using 8 concentrations of mAb. Curves are fitted and IC₅₀ of CCL1 binding blocking activity is calculated using the sigmoidal dose-response (variable slope) model on GraphPad Prism 9 (GraphPad Software, San Diego, CA, USA).
Background: Flow cytometry measures light scatter and fluorescence of single cells or particles in a stream.

Experiment [5] addresses T1, human CCR8. Description: cell-based or functional assay. The source holds these as a separate data set.
Experiment [6] deals with T1, human CCR8. Description: cell-based or functional assay. This is another data set of the same source.

Several values for one entry are separate records, joined by “and”; a condition that tells them apart may be missing. Equal entries are not always repeated.

T3 sequence (peptide, as listed by the source): as above
T4 sequence (peptide, as listed by the source): as above

B1: anti-CCR8 mAb 1-4 (antibody, V domains shown)
VH: EVQLVESGGGLVQPTGSLRLSCAASGFTFNAYAMNWVRQAPGKGLEWVARIRSKSNDYATYYGDSVKDRFTISRDDSQSMLYLQMNNLKTEDTAMYYCVRGREAYYRYDGGYYAMDYWGQGTSVTVSS
VL: DIVMTQAAPSVSVTPGESVSISCTSSKSLLHSNGNTYLYWFLQRPGQSPQLLIYRMSNLASGVPDRFSGSGSGTAFTLRISRVEAEDVGVYYCMQHREYPFTFGSGTKLEIK
notes: Murine hybridoma mAb
In general, IC50 refers to the midpoint of a concentration-inhibition curve. A higher IC50 goes with weaker potency in that assay. B1: the “IC50 of CCL1-induced hCCR8 Gi2 signaling (BRET, HEK-293)” value (shortened to “IC50 … (BRET, HEK-293)”) in the experiment with human CCR8 [1] was 0.034 µg/mL and 0.227 nM. In addition, in the experiment with human CCR8 [2], the “% positive cells” value turned out to be 66.8% and the “MFI fold change to isotype ctrl” value is 5.06 fold. For the same molecule, in the experiment with human CCR8 [3], the “IC50 of CCL1-induced hCCR8 Gi2 signaling (BRET), pH 6.5” value (“IC50 … pH 6.5” for short) was 0.034 µg/ml and 0.225 nM; the “IC50 of CCL1-induced hCCR8 Gi2 signaling (BRET), pH 7.4” value (shortened to “IC50 … pH 7.4”) is 0.065 µg/ml and 0.434 nM. Also, the binding result with pm6 is recorded as “binds”. In the experiment with pm5, the binding result is given as “binds”. In the experiment with pm3, the binding result is on record as “binds”. Besides, the binding result with pm8 is on record as “binds”. Moreover, the IC50 in the experiment with human CCR8 [4] is 1.93 µg/mL and 12.9 nM. In the experiment with human CCR8 [5], the “residual hCCL1 (100 nM) Gi2 response, protocol #2, mAb 0.08 µg/mL” value (“residual hCCL1 … mAb 0.08 µg/mL” below) worked out at 72%; the “residual hCCL1 (100 nM) Gi2 response, protocol #2, mAb 0.4 µg/mL” value (“residual hCCL1 … mAb 0.4 µg/mL” below) turned out to be 49%; the “residual hCCL1 (100 nM) Gi2 response, protocol #2, mAb 10 µg/mL” value (shortened to “residual hCCL1 … mAb 10 µg/mL”) came to 28%; the “residual hCCL1 (100 nM) Gi2 response, protocol #3, mAb 0.05 µg/mL” value (“residual hCCL1 … mAb 0.05 µg/mL” below) was 75%. Further, in the experiment with human CCR8 [5], the “residual hCCL1 (100 nM) Gi2 response, protocol #3, mAb 0.5 µg/mL” value (“residual hCCL1 … mAb 0.5 µg/mL” below) was 36% and the “residual hCCL1 (100 nM) Gi2 response, protocol #3, mAb 5 µg/mL” value (shortened to “residual hCCL1 … mAb 5 µg/mL”) was determined as 22%. Also, the “extrapolated top plateau of hCCL1 curve with 5 µg/mL mAb, protocol #3” value (shortened to “extrapolated top plateau of hCCL1 curve”) in the experiment with human CCR8 [6] was 313000 % of hCCL1 (100 nM).

B2: anti-CCR8 mAb 1-12 (antibody, V domains shown)
VH: EVQLVETGGGLVQPKGSLKLSCAASGFTFNANAMNWVRQAPGKGLEWVARIRSKSNNYATYYADSVKDRFTISRDDSQSMLYLQMNNLKTEDTAMYYCVRGSDNYIFYAMDYWGQGTSVTVSS
VL: DIVMTQAAPSVPVTPGESVSISCRSSKSLLHSNGNTYLYWFLQRPGQSPQLLIYRMSNLASGVPDRFSGSGSGTAFTLRISRVEAEDVGVYYCMQHLEYPFTFGGGTKLEIK
notes: Murine hybridoma mAb
With B2, the “IC50 … (BRET, HEK-293)” value with human CCR8 [1] was 0.015 µg/mL and 0.099 nM. Moreover, in the experiment with human CCR8 [2], the “% positive cells” value turned out to be 67.8% and the “MFI fold change to isotype ctrl” value turned out to be 6.11 fold. Moreover, in the experiment with human CCR8 [3], the “IC50 … pH 6.5” value was 0.031 µg/ml and 0.208 nM; the “IC50 … pH 7.4” value was 0.017 µg/ml and 0.115 nM. The binding result with pm6 was “binds”. Further, the binding result with pm5 is on record as “binds”. In addition, in the experiment with pm3, the binding result is “binds”. Moreover, the binding result with pm8 is listed as “binds”. Besides, the IC50 in the experiment with human CCR8 [4] is 0.85 µg/mL and 5.72 nM. Moreover, in the experiment with human CCR8 [5], the “residual hCCL1 … mAb 0.08 µg/mL” value turned out to be 99%; the “residual hCCL1 … mAb 0.4 µg/mL” value was found to be 85%; the “residual hCCL1 … mAb 10 µg/mL” value stood at 68%; the “residual hCCL1 … mAb 0.05 µg/mL” value is 86%. In the experiment with human CCR8 [5], the “residual hCCL1 … mAb 0.5 µg/mL” value came to 75% and the “residual hCCL1 … mAb 5 µg/mL” value was 48%. For the same molecule, the “extrapolated top plateau of hCCL1 curve” value with human CCR8 [6] was 805000 % of hCCL1 (100 nM).

B3: anti-CCR8 mAb 1-8 (antibody, V domains shown)
VH: EVQLVESGGGLVQPKGSLRLSCAASGFTFNAYAMNWVRQAPGKGLEWVARIRSKSNNYATYYGDSVKDRFTISRDDSQTMLYLQMNNLKTEDTAMYYCVRGREAYYRYDGDYYAMDYWGQGTSVTVSS
VL: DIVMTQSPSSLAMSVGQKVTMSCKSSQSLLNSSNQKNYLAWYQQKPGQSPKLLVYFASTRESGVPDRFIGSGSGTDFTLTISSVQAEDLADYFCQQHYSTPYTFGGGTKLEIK
notes: Murine hybridoma mAb
With B3, the “IC50 … (BRET, HEK-293)” value with human CCR8 [1] is 0.031 µg/mL and 0.209 nM. Further, in the experiment with human CCR8 [2], the “% positive cells” value is 68.5% and the “MFI fold change to isotype ctrl” value worked out at 5.12 fold. Further, in the experiment with human CCR8 [3], the “IC50 … pH 6.5” value is 0.053 µg/ml and 0.355 nM; the “IC50 … pH 7.4” value was 0.063 µg/ml and 0.421 nM. Also, in the experiment with pm6, the binding result is given as “binds”. Also, in the experiment with pm5, the binding result was “binds”. In the experiment with pm3, the binding result was “binds”. The binding result with pm8 is reported as “binds”. In addition, the IC50 with human CCR8 [4] was 2.55 µg/mL and 17.1 nM. In addition, in the experiment with human CCR8 [5], the “residual hCCL1 … mAb 0.08 µg/mL” value was 70%; the “residual hCCL1 … mAb 0.4 µg/mL” value was 44%; the “residual hCCL1 … mAb 10 µg/mL” value is 51%; the “residual hCCL1 … mAb 0.05 µg/mL” value came out at 78%. In the experiment with human CCR8 [5], the “residual hCCL1 … mAb 0.5 µg/mL” value came out at 55% and the “residual hCCL1 … mAb 5 µg/mL” value was determined as 43%. In the experiment with human CCR8 [6], the “extrapolated top plateau of hCCL1 curve” value is 511000 % of hCCL1 (100 nM).

B4: anti-CCR8 mAb 1-13 (antibody, V domains shown)
VH: EVQLVETGGGLVQPKGSLKLSCAASGFTFNTNAMNWVRQAPGKGLEWVARIRSKSNYYATYYADSVKDRFTISRDDSQSMLYLQMNNLKTEDTAMYYCVRGREMGNYYSMDYWGQGTSVTVSS
VL: DIVMTQAAPSVPVTPGESVSISCRSSKSLLHSNGNTYLYWFLQRPGQSPQLLIYRMSNLASGVPDRFSGSGSGTAFTLRISRVEAEDVGVYYCMQHLEYPFTFGSGTKLEIK
notes: Murine hybridoma mAb
Turning to B4, the “IC50 … (BRET, HEK-293)” value in the experiment with human CCR8 [1] is 0.01 µg/mL and 0.067 nM. For the same molecule, in the experiment with human CCR8 [2], the “% positive cells” value came to 64.7% and the “MFI fold change to isotype ctrl” value was 5.63 fold. In addition, in the experiment with human CCR8 [3], the “IC50 … pH 6.5” value was 0.019 µg/ml and 0.125 nM; the “IC50 … pH 7.4” value is 0.011 µg/ml and 0.075 nM. In addition, in the experiment with pm6, the binding result is listed as “binds”. In the experiment with pm5, the binding result is on record as “binds”. For the same molecule, in the experiment with pm3, the binding result is listed as “binds”. Also, the binding result with pm8 is “binds”. In the experiment with human CCR8 [4], the IC50 was 0.36 µg/mL and 2.42 nM. Also, in the experiment with human CCR8 [5], the “residual hCCL1 … mAb 0.08 µg/mL” value came out at 60%; the “residual hCCL1 … mAb 0.4 µg/mL” value amounted to 35%; the “residual hCCL1 … mAb 10 µg/mL” value amounted to 21%; the “residual hCCL1 … mAb 0.05 µg/mL” value was 69%. In the experiment with human CCR8 [5], the “residual hCCL1 … mAb 0.5 µg/mL” value came to 39% and the “residual hCCL1 … mAb 5 µg/mL” value came to 38%. The “extrapolated top plateau of hCCL1 curve” value with human CCR8 [6] was 149 % of hCCL1 (100 nM).
